The source of these data is article PMC4513130, “Neuronal Calcium Sensor-1 Binds the D2 Dopamine Receptor and G-protein-coupled Receptor Kinase 1 (GRK1) Peptides Using Different Modes of Interactions*” (The Journal of Biological Chemistry, 2015).

In assay [1] the target is T1, Rattus norvegicus neuronal calcium sensor-1 (NCS-1), full-length, Ca2+-bound (Rattus norvegicus, UniProt P62168 1-190).
T1 construct: Neuronal calcium sensor-1, Rattus norvegicus, Swiss-Prot P62168, full length (residues 1-190); also called Ca2+/NCS-1; rat NCS-1
The assay can be described thus: crystal structure; NCS-1 (1 mM) with 2-fold excess of GRK1 peptide; 0.12 M alcohols, 0.1 M HEPES/MOPS pH 7.5, 30% PEGMME 550 and PEG 20000, 20 °C; 2.30 Å. As to conditions: both partners purified.

Assay [2] has as its target T1, Rattus norvegicus neuronal calcium …. The assay can be described thus: ITC; 1 mM Ca2+/NCS-1 in the syringe titrated into 100 uM D2R peptide in the cell, 25 °C, 50 mM Tris-HCl, 50 mM NaCl, 5 mM CaCl2, pH 7.5; fitted to a sequential model and to a two-site nonsequential model with stoichiometry fixed at 1:2 NCS-1:peptide. The settings on record: both partners purified. For orientation: ITC needs no label: the signal is the heat of the interaction.

B1: GRK1 peptide (N terminus of G-protein-coupled receptor kinase 1, residues 1-25) (peptide)
peptide: MDFGSLETVVANSAFIAARGSFDGS
notes: also called RK25; source: synthetic peptide, bought: GenicBio, China (>95% pure)
Take B1: the binding result in assay [1] is listed as “binds”.

B2: D2 receptor peptide (D2R peptide) (peptide)
peptide: NIEFRKAFLKILHSR
notes: terminal Arg added to improve solubility; also called D2B (copy in the N-lobe site); D2C (copy in the C-lobe site); source: synthetic peptide, bought: GenicBio, China (>95% pure)
Regarding B2, in assay [2], the dissociation constant Kd was 40 ± 6 µM.

For orientation: Kd means the concentration at which binding is half-saturated.
